Article PMC2908078, “The YEATS family member GAS41 interacts with the general transcription factor TFIIF” (BMC Molecular Biology, 2010)
One block for each binder: values may come before it.

Biological target: T1, His-GAS41 (human, UniProt O95619 1-227)
T1 construct: source: E. coli M15 [pRep4], pQE30, purified (Ni-NTA)
Test: pull-down; GST-RAP30 full length or fragments d1-d3 on glutathione-sepharose 4B as bait, purified His-GAS41 (10-20 ug) as prey, over night at 4°C; immunoblot
Conditions: both partners purified

T1 sequence (O95619 whole entry): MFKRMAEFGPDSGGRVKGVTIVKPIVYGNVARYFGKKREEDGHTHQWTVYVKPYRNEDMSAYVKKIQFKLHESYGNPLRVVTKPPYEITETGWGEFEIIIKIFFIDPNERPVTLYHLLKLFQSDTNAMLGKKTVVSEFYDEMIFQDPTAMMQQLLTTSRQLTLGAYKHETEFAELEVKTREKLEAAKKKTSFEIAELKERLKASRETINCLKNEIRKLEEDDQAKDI

binding result: binds
B1: GST-RAP30 d3 (DNA binding site, aa169-249) (domain or fragment, human, UniProt P13984 169-249, looked up)
chain: KKEDGKRARADKQHVLDMLFSAFEKHQYYNLKDLVDITKQPVVYLKEILKEIGVQNVKGIHKNTWELKPEYRHYQGEEKSD
notes: source: E. coli BL21 (DE3), pGEX-4T1

binding result: binds
B2: GST-RAP30 d2 (RAP74 binding domain and polymerase binding domain, aa1-169) (domain or fragment, human, UniProt P13984 1-169, looked up)
chain: MAERGELDLTGAKQNTGVWLVKVPKYLSQQWAKASGRGEVGKLRIAKTQGRTEVSFTLNEDLANIHDIGGKPASVSAPREHPFVLQSVGGQTLTVFTESSSDKLSLEGIVVQRAECRPAASENYMRLKRLQIEESSKPVRLSQQLDKVVTTNYKPVANHQYNIEYERKK
notes: as for B1
